Measured values published in patent US20230122364A1 (VANDERBILT UNIVERSITY, published 2023).

B1: COV2-2098 (antibody, V domains shown)
VH: EVQLLESGGGLIQPGGSLRLSCAASGFTFSNYAMSWVRQAPGKGLEWVSGIISTSGGATYNADSVRGRFTTSRDNSKNILYLQMNSLRGEDTAVYYCVKGLFDWFPLWGQGTMVTVSS
VL: DIVMTQSPATLSVSPGERAILSCRASQSVRSNLAWYQQKPGQAPRLLISGASTRATAIPARFSGSGSGTEFTLTITSLQSEDCAVYYCHQYNNWPQTFGQGTKVEIK
B2: COV2-2068 (antibody, V domains shown)
VH: EVQLVESGGGLVQPGGSLRLSCAASGFTVSSNYMSWVRQAPGKGLEWVSVIYPGGSAFYADSVKGRFTISRHNSNNTLCLQMNSLRTEDTAVYYCARSYDILTGYRDAFDIWGQGTMVTVSS
VL: QSVLTQPPSVSGAPGQRVTISCTGSSSNIGSGSDVHWYQQLPGTAPKLLIYGNTNRPSGVPDRFSGSKSGTSASLAITGLQAEDEADYYCQSYDSRLSGFVVFGGGTKLTVL
B3: COV2-2113 (antibody, V domains shown)
VH: EVQLVESGGGLIQPGGSLRLSCAASEVTVSSNYMSWVRQAPGKGLEWVSLIYSGGTTYYADSVKGRFTISRDNSKNTLYLQMNSLRAEDTAVYYCARDFLRWHDLWGQGTLVTVSS
VL: DIQMTQSPSSLSASVGDRVTITCQASQDINNYLNWYQQKPGKAPKLLIYDASNLETGVPLRFSGSGSGTDFIFTISSLQPEDIATYYCQQYDNLPPVFGGGTKVEIK
B4: COV2-2132 (antibody, V domains shown)
VH: EVQLVESGGGLIQPGGSLRLSCAASEVTVSSNYMSWVRQAPGKGLEWVSLIYSGGTTYYADSVKGRFTISRDNSKNTLYLQMNSLRAEDTAVYYCARDFLRWHDLWGQGTLVTVSS
VL: DIQMTQSPSSLSASVGDRVTITCQASQDINNYLNWYQQKPGKAPKLLIYDASNLETGVPLRFSGSGSGTDFTFTISSLQPEDIATYYCQQYDNLPPVFGGGTKVEIK
B5: COV2-2103 (antibody, V domains shown)
VH: EVQLVESGGGLVQPGGSLRLSCAASGFTFSRHWMTWVRQAPGKGLEWVANIKQDGSEKYYVDSVKGRLTISRDNAKNSLYLQMNSLRAEDTAVYYCARLGFYYGGADYWGQGTLVTVSS
VL: NFMLTQPHSVSESPGKTVTISCTGSSGSIASNYVQWYQQRPGSAPTTVISEDNQRPSGVPDRFSGSIDSSSNSASLTISGLKTEDEADYYCQSYDGINRAWVFGGGTKLTVL
B6: COV2-2050 (antibody, V domains shown)
VH: QVQLVQSGAEVKKPGASVKVSCKASGYTFTDYYMHWVRQAPGQGLEWMGWINPNSRGTNYAQKFQGRVTMTRDTSISTVYMELSRLTSDDTAVYYCARVVVLGYGRPNNYYDGRNVWDYWGQGTLVTVSS
VL: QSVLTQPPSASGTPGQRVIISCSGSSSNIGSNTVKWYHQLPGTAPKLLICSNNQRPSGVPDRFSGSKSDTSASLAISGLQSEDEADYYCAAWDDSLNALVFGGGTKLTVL
B7: COV2-2046 (antibody, V domains shown)
VH: EVQLVESGGGLVQPGRSLRLSCAASGFTFDDYAMHWVRQAPGKGLEWVSGISWNSGSIAYTDSVKGRFTISRDNAKNSLYLQMNSLRAEDTALYYCAKAHSTGHQYYYGMDVWGQGTTVTVSS
VL: DIQMTQSPSSLSASVGDRVTITCRASQSISSFLNWYQQKPGKAPKLLIYAAFNLQSGVPSRFSGSGSGTDFTLTISSLQSEDFATYYCQQSYNTPYTFGQGTKLEIK
B8: COV2-2082 (antibody, V domains shown)
VH: EVQLVESGGGVVRPGGSLRLSCAASGFIFDDYDMTWVRQAPGKGLEWVSGISWNGGNTGYADSVKGRFTISRDNAKNSLYLQMNSLRAEDTALYHCAVIMSPIPRYSGYDWAGGAFDIWGQGTMVTVSS
VL: SSELTQDPAVSVALGQTVRITCQGDSLRSYYASWYQQKPGQVPILVIYDKNNRPSGIPDRFSGSSSGNTASLTITGAQAEDEADYYCNSRDSSGNAVVFGGGTKLTVL
B9: COV2-2961 (antibody, V domains shown)
VH: EVQLVQSGPEVKKPGTSVKVSCKASGFTFMSSAVQWVRQARGQRLEWIGWIVIGSGNTNYAQKFQERVTITRDMSTSTAYMELSSLRSEDTAVYYCAAPYCSSISCNDGFDIWGQGTMVTVSS
VL: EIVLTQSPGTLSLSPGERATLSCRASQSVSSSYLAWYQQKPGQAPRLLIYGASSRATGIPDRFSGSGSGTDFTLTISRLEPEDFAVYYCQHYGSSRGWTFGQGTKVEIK

Assays:
[1] = target: T1, SARS-CoV-2 spike (S) protein on authentic SARS-CoV-2 virus (strain WA1/2020) (SARS-CoV-2, UniProt P0DTC2 14-1273); assay: cell-based or functional assay
[2] = target: T2, SRBD subdomain of SARS-CoV-2 S protein (SARS-CoV-2, UniProt P0DTC2 319-541); assay: ELISA on coated SRBD
SARS-CoV-2 NTD = target: T3, SARS-CoV-2 NTD (SARS-CoV-2, UniProt P0DTC2 14-305); assay: ELISA, purified IgG
T3 construct: domain: NTD

[3] = target: T2, SRBD subdomain of SARS-CoV-2 S protein; assay: ELISA, purified IgG
[4] = target: T1, SARS-CoV-2 spike (S) protein on …; assay: cell-based or functional assay; remark: listed apart in the source

Row | Binder | Nano-luciferase virus reduction test, SARS-CoV-2, IC50 [1] [µg/mL] | SARS-CoV-2 focus reduction test, IC50 [1] [µg/mL] | EC50 [2] [µg/mL] | OD 450 nm (SARS-CoV-2 NTD) [OD 450 nm] | OD 450 nm [3] [OD 450 nm] | Neutralization IC50 (FRNT, authentic SARS-CoV-2 WA1/2020) [4] [µg/mL]
1 | B1 | < 0.1 | 0.776 | 0.0007 | 0.15 | 4.2 | 1.03
2 | B2 | < 0.3 | 0.864 | 0.0012 | 0.1 | 4.3 | 0.478
3 | B3 | < 0.3 | 0.427 | 0.0006 | – | 4.4 | 1.04
4 | B4 | < 0.3 | 0.673 | – | 0.15 | – | –
5 | B5 | – | > 1 | 0.0011 | 0.12 | 4.3 | 1.97
6 | B6 | < 0.05 | 0.025 | 0.0016 | 0.12 | 4.3 | 0.08
7 | B7 | < 0.1 | 0.171 | – | 0.09 | – | –
8 | B8 | < 0.2 | 0.302 | 0.0006 | 0.11 | 4.3 | 0.204
9 | B9 | – | 0.03 | – | – | – | –
